In US20240197828A1, “Chimeric molecule to treat sepsis and other inflammatory conditions” (THE FEINSTEIN INSTITUTES FOR MEDICAL RESEARCH, priority 2022, published 2024):

Biological target: T1, rmCIRP (Mus musculus, UniProt P60824)
T1 construct: purchased Cubasio Technology LLC CSB-EP613483He0
T1 sequence (P60824 1-172): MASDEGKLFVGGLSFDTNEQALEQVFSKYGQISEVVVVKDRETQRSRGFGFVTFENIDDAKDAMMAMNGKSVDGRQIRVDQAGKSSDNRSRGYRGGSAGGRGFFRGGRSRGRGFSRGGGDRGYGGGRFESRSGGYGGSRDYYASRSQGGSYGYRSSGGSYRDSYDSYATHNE
Test: Surface plasmon resonance (Biacore/OpenSPR) binding to rmCIRP
Design: species or system murine
Conditions: rmCIRP immobilized, rmMFG-E8 analyte 15.7 to 250 nM, DPBS with Ca/Mg, 1% BSA, pH 7.4; read-out: equilibrium dissociation KD between rmCIRP and rmMFG-E8
Source text: Computational modeling was used to determine the likely domain of MFG-E8's binding to eCIRP. The known amino acid (AA) sequence of this domain was used to develop and test potential therapeutic peptides. An MFG-E8 derived oligopeptide, MOP3, was developed based on 15 AA from MFG-E8 discoidin 2 domain (mimicking MFG-E8's C-terminal) and tagged with the 3 AA, RGD, (mimicking MFG-E8's binding capacity for the integrin receptor at the N-terminal). Binding of MOP3 to CIRP was quantified using Surface Plasmon Resonance (SPR) analysis. Macrophages (RAW264.7 cells) were treated with FITC-recombinant mouse (rm)-CIRP or co-incubated MOP3 and FITC-rmCIRP with and without a. Br-integrin Ab. After 1 h, cells were fixed and analyzed for intracellular FITC-rmCIRP by flow cytometry. Macrophages were stimulated with rmCIRP or co-incubated mixture of MOP3 and rmCIRP. After 4 h, cell culture supernatants were analyzed for inflammatory cytokine, TNFα. […]
To examine the direct interaction between rmCIRP and rmMFG-E8, surface plasmon resonance (SPR), OpenSPR (Nicoya), was performed between rmCIRP and rmMFG-E8. rmCIRP was immobilized on carboxyl sensor and rmMFG-E8 was injected as an analyte in concentrations of 15.7 nM to 250 nM. […] To evaluate binding, the analyte was injected into flow cell-1 and flow cell-2 and increasing concentrations and real-time interaction data were analyzed by TraceDrawer (Nicoya). […]

B1: milk fat globule-epidermal growth factor—factor VIII (protein, listed as Mus musculus)
chain: MQVSRVLAALCGMLLCASGLFAASGDFCDSSLCLNGGTCLTGQDNDIYCLCPEGFTGLVCNETERGPCSPNPCYNDAKCLVTLDTQRGDIFTEYICQCPVGYSGIHCETETNYYNLDGEYMFTTAVPNTAVPTPAPTPDLSNNLASRCSTQLGMEGGAIADSQISASSVYMGFMGLQRWGPELARLYRTGIVNAWTASNYDSKPWIQVNLLRKMRVSGVMTQGASRAGRAEYLKTFKVAYSLDGRKFEFIQDESGGDKEFLGNLDNNSLKVNMFNPTLEAQYIKLYPVSCHRGCTLRFELLGCELHGCSEPLGLKNNTIPDSQMSASSSYKTWNLRAFGWYPHLGRLDNQGKINAWTAQSNSAKEWLQVDLGTQRQVTGIITQGARDFGHIQYVASYKVAHSDDGVQWTVYEEQGSSKVFQGNLDNNSHKKNIFEKPFMARYVRVLPVSWHNRITLRLELLGC
B1 showed a Kd of 200 nM.
